Source: patent US20180142222
Where two headings read alike, the source gives them in different places.

Experiments:
[1] = biological target: Cas9HNH (Cy3/Cy5-labelled reporter Cas9; dCas9HNH for binding data) C80S,C574S,S355C,S867C (Streptococcus pyogenes) (UniProt Q99ZW2); conditions: direct binding assay estimate
[2] = biological target: Cas9hinge (Cy3/Cy5-labelled reporter Cas9) C80S,C574S,D435C,E945C (Streptococcus pyogenes) (UniProt Q99ZW2); conditions: bound but (ratio)A indistinguishable from apo

In the case of full-length sgRNA ; on-target DNA, the binding ([1]; large FRET increase on target DNA) was greater than 89 % bound.

“full-length sgRNA ; PAM-distal mismatch DNA” was tested, and the binding ([1]; (ratio)A falls with mismatch number, dCas9 gives stable footprint on these substrates) was greater than 89 % bound.

Substance sgRNA delta-spacer1-20 has a binding [2] greater than 95 % bound.
